According to publication PMC9022995, “Sequence and structural variations determining the recruitment of WNK kinases to the KLHL3 E3 ligase” (Biochemical Journal, 2022):
Values belong to the molecule of their own block, whether it stands above or below them. Square brackets hold non-standard residues; d marks the D form. Ends that are not written are not given here. Peptide text beside a SMILES is read from it. Lumio green = fluorophore conjugated via N-terminal linker CCPGCCGGGG; Rhodamine‑110 = fluorophore on the N-terminus; pT = C[C@@H](OP(=O)(O)O)[C@H](N)C(=O)O

Legend:
[1] = tested on: WNK3 protein levels in HEK293 cells co-transfected with KLHL3-FLAG; experiment: KLHL3-mediated degradation of WNK3 on co-transfection, immunoblotting for WNK3 protein levels; format: cell-based; settings: WNK3-HA wild type or mutant with increasing KLHL3-FLAG, 48 h post transfection, immunoblot, three independent experiments, mean ± SEM
Protocol: Figure 3. T541E substitution in WNK3 affects its KLHL3-targeted degradation in HEK293 cells. (A) WNK3-HA protein levels were investigated in HEK293 cells transfected with either wild type or mutant constructs and increasing concentrations of KLHL3-FLAG. A representative blot is presented. (B) Quantitative results of three independent experiments. Data are mean ± SEM. * P < 0.01, ** P < 0.0005.
HEK293 cells (ATCC® CRL-1573) were grown in Dulbecco's modified Eagle's medium (DMEM) supplemented with 10% fetal bovine serum to 70–80% confluence and transfected using Lipofectamine 2000 (Life Technologies, Inc.) with wild type or mutant WNK3-HA [46] and with different concentrations of KLHL3-FLAG [42]. Forty-eight hours post transfection, cells were lysed and protein concentration was quantified by the BCA protein assay (Pierce). Samples were diluted in Laemmli buffer and subjected to SDS–PAGE. Proteins were transferred to PVDF membranes which were then blocked for 1 h in 10% (w/v) non-fat milk dissolved in TBS- Tween 20 0.1% (TBSt). Antibodies were diluted in 5% (w/v) non-fat milk-TBSt. Incubation with HRP-coupled primary antibodies was performed overnight. Immunoblots were developed using radiographic film.
Lysis buffer: 50 mM Tris–HCl (pH 7.5), 1 mM EGTA, 1 mM EDTA, 50 mM sodium fluoride, 5 mM sodium pyrophosphate, 1 mM sodium orthovanadate, 1% (w/v) IGEPAL CA-630, 270 mM sucrose, 0.1% (v/v) 2-mercaptoethanol, and protease inhibitors (Complete tablets (Roche Applied Science).

[2] = target: T1, KLHL3 Kelch domain (GST-KLHL3, a.a. 298–587) (Homo sapiens, UniProt Q9UH77); experiment: Fluorescence polarisation assay for the binding of WNK3 variants; settings: 25°C; for Kd: GST-KLHL3 a.a. 298–587, 50 mM Tris–HCl pH 7.5, 150 mM NaCl, 2 mM DTT, one site specific binding with Hill slope, three technical replicates per point
T1 construct: using KLHL3 Kelch domain (GST-KLHL3, a.a. 298–587, MRC-PPU plasmid DU44387); host or cells: E. coli BL21
T1 sequence (Q9UH77 298-587): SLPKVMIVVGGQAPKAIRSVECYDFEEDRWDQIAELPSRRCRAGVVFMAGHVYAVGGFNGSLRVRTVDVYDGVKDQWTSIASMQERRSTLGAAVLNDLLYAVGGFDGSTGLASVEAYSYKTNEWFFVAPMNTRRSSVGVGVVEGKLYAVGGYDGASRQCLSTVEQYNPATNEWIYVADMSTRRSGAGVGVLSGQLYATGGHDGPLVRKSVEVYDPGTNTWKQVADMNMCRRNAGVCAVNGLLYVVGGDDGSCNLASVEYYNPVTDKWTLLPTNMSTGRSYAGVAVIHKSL
Protocol: Figure 2. Analysis of the interaction between KLHL3 and WNK3 variants by fluorescence polarisation. Purified GST-KLHL3 a.a. 298–587 was diluted appropriately and mixed at a 1 : 1 volume ratio with 20 nM Lumino-Green-labelled WNK3 peptides to the concentration stated in the Figure, with the peptide concentration consistent at 10 nM. Fluorescence polarisation measurements were recorded and corrected to the fluorescent probe alone. Each data point represents three technical replicates. One site-specific binding with hill slope was assumed and the disassociation constant was obtained. Binding curves, assuming one-site-specific binding, were then generated with Prism6 using milli-polarization (mP) units. TEXT PRINTED IN THE PICTURE: WNK3 [a.a.537-547] […] E541: KD > 50 μM | WNK3 [a.a.537-547] pT541: KD > 50 μM
For fluorescence polarisation measurements of WNK3 variants, the Kelch domain of human KLHL3 (a.a. […]) was cloned into the bacterial expression vector pGEX6P-1 (MRC-PPU plasmid DU44387) and expressed as a GST fusion protein as previously described. Briefly, E. coli BL21 cells were transformed with plasmid DNA and grown at 37°C in LB broth containing 100 µg/ml ampicillin until OD600 reached 0.6. Cells were then cultured at 16°C for a further 16 h in the presence of 50 µM IPTG for protein induction. Harvested cells were lysed by sonication and the lysate clarified by centrifugation. GST fusion protein was affinity purified using 0.5 ml glutathione–sepharose beads and eluted in buffer (50 mM Tris–HCl pH 7.5, 150 mM NaCl, 2 mM DTT) containing 20 mM glutathione.
Fluorescence polarisation measurements were performed at 25°C using KLHL3 Kelch domain (GST-KLHL3, a.a. 298–587, MRC-PPU plasmid DU44387) buffered in 50 mM Tris–HCl pH 7.5, 150 mM NaCl, 2 mM DTT. All peptides (ECEETEVDQHV, WNK3 a.a. 537–547), (ECEET(P)EVDQHV, WNK3 a.a. 537–547, Thr541 is phosphorylated), and (ECEEEEVDQHV, WNK3 a.a. 537–547, Thr541 is mutated to Glu) were conjugated to the Lumio green fluorophore via an N-terminal linker (CCPGCCGGGG) and dialysed into assay buffer before use. Samples were prepared with 10 nM Lumio-green labelled peptide and the indicated concentration of protein in a final volume of 30 µl. Fluorescence polarisation measurements were recorded using a BMG PheraStar plate reader, with an excitation wavelength of 485 nm and an emission wavelength of 538 nm, and measurements were corrected to the fluorescent probe alone. Data analysis and graphing were performed in GraphPad Prism6. One Site Specific binding with Hill Slope was assumed (model Y = Bmax × X^h/KD^h + X^h) and the disassociation constant, and associated standard error was obtained.

[3] = target: Lumio green-labelled WNK3 degron peptide (…, WNK3 a.a. 537–547) (human); experiment: fluorescence polarisation; 10 nM Lumio green-labelled WNK3 peptide titrated with GST-KLHL3 Kelch domain; 25°C; 50 mM Tris–HCl pH 7.5, 150 mM NaCl, 2 mM DTT; one site specific binding with Hill slope
[4] = target: Lumio green-labelled phospho-WNK3 peptide (ECEET(P)EVDQHV, WNK3 a.a. 537–547, Thr541 phosphorylated) (human); experiment: as above
[5] = target: T2, KLHL3 Kelch domain (a.a. 298–587) (human, UniProt Q9UH77-1 298-587); experiment: FP; 0 mM Cl-
T2 chain: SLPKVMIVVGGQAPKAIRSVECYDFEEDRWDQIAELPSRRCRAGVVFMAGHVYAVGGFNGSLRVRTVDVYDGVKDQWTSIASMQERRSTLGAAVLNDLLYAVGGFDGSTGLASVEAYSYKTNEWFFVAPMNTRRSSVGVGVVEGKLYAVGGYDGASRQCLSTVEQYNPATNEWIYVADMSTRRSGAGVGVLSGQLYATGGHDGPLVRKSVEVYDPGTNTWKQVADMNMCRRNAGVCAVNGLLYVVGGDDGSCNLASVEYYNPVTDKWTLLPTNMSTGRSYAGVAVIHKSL

[6] = target: T2, KLHL3 Kelch domain (a.a. 298–587); experiment: FP; 150 mM F-
[7] = target: T2, KLHL3 Kelch domain (a.a. 298–587); experiment: FP; 18 mM Cl-
[8] = target: T2, KLHL3 Kelch domain (a.a. 298–587); experiment: FP; 37 mM Cl-
[9] = target: T2, KLHL3 Kelch domain (a.a. 298–587); experiment: FP; 75 mM Cl-
[10] = target: T2, KLHL3 Kelch domain (a.a. 298–587); experiment: FP; 150 mM Cl-
[11] = target: T2, KLHL3 Kelch domain (a.a. 298–587); experiment: FP; 2.4 mM Cl-
[12] = target: T2, KLHL3 Kelch domain (a.a. 298–587); experiment: FP; 4.7 mM Cl-
[13] = target: T2, KLHL3 Kelch domain (a.a. 298–587); experiment: FP; 9.5 mM Cl-
[14] = target: T3, KLHL3 Kelch domain (a.a. 298–587) (human, UniProt Q9UH77-1 298-587); experiment: fluorescence polarisation; 10 nM Rhodamine-110 labelled peptide with KLHL3 (a.a. 298–587) from 0 to 3200 or 6400 nM; 25°C; test of the effect of chloride concentration; one site total fit; settings: both partners purified
T3 construct: Kelch-like protein 3 (KLHL3), human, Kelch domain, a.a; 298–587; Vector pNIC28-Bsa4; the hexahistidine tag was cleaved with TEV protease; It is not clear whether Addgene #110251 names the vector or the construct; also called KLHL3 (a.a. 298–587); source: E. coli BL21(DE3)-pRARE, purified (nickel-sepharose, SEC, TEV cleavage); not shown: His6, N-terminal, cleaved
T3 sequence (looked up): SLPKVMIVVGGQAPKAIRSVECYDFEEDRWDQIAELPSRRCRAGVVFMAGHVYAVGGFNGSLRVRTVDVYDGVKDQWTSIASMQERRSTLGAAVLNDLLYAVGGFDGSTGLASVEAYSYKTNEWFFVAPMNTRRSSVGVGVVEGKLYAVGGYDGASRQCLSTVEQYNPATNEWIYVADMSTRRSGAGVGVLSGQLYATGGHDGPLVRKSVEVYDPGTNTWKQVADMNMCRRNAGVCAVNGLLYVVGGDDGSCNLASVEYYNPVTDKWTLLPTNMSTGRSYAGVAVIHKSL

[15] = target: T4, GST-KLHL3 Kelch domain (a.a. 298–587) (human, UniProt Q9UH77 298-587); experiment: FP
T4 chain: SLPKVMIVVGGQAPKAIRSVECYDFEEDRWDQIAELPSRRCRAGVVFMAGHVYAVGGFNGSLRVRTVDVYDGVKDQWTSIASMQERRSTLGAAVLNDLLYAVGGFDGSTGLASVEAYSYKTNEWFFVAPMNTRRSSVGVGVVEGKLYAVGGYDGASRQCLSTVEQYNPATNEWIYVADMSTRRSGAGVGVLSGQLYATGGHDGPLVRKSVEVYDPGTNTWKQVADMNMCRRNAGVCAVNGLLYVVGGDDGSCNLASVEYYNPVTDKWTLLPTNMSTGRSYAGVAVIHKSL

[16] = 10 nM Lumio-green labelled peptide (N-terminal linker CCPGCCGGGG), 30 µl, ex 485/em 538 nm, repeated at least twice

Kd ([2]; printed in Figure 2 picture, 10 nM Lumio-green labelled peptide): > 50000 nM
Molecule: ECEEEEVDQHV [WNK3 [a.a.537-547] E541]

Kd [5]: 700 nM | Kd [6]: 300 nM | Kd [7]: 600 nM | Kd [8]: 600 nM | Kd [9]: 600 nM | Kd [10]: 700 nM | Kd [11]: 600 nM | Kd [12]: 600 nM | Kd [13]: 600 nM | binding result [14]: binds
B1: Rhodamine-110 labelled WNK4 degron peptide (EPEEPEADQHQ) (peptide)
peptide: {Rhodamine‑110}-EPEEPEADQHQ
notes: WNK4 acidic degron motif, residues 557–567; also called 11-residue degron from WNK4; source: synthetic peptide (Fmoc solid phase, purified by HPLC)

Kd [15]: > 50000 nM
Molecule: {Lumio green}-CCPGCCGGGGECEEEEVDQHV (cysteine pairing not given here) [Lumio green-labelled WNK3 T541E peptide (ECEEEEVDQHV, WNK3 a.a. 537–547, Thr541 mutated to Glu)]

Kd [5]: 1700 nM | Kd [6]: 1100 nM | Kd [7]: 1400 nM | Kd [8]: 1500 nM | Kd [9]: 1300 nM | Kd [10]: 1300 nM | Kd [11]: 1200 nM | Kd [12]: 1700 nM | Kd [13]: 1300 nM
Molecule: {Rhodamine‑110}-ECEETEVDQHV [Rhodamine-110 labelled WNK3 degron peptide (ECEETEVDQHV)]

The remaining lines, values behind:

Molecule: WNK3: wild type WNK3-HA transfected in HEK293 cells
WNK3 levels / KLHL3-mediated degradation (in words) [1]: significantly lower than in the absence of KLHL3, even at the lowest amounts of KLHL3 DNA used for transfection

Molecule: ECEETEVDQHV [WNK3 [a.a.537-547] WT]
Kd [2, 16]: 670 nM

Molecule: WNK3 T541E: WNK3-HA mutant T541E transfected in HEK293 cells
WNK3 levels / KLHL3-mediated degradation (in words) [1]: noticeably resistant to degradation

Molecule: GST-KLHL3 Kelch domain (a.a. 298–587) (from UniProt Q9UH77 298-587) (domain or fragment)
Kd [3]: 670 nM | Kd [4]: > 50000 nM

Molecule: T541A: WNK3-HA mutant T541A transfected in HEK293 cells
WNK3 levels / KLHL3-mediated degradation (in words) [1]: reduced KLHL3-mediated degradation of WNK3

Molecule: CC(C)[C@H](NC(=O)[C@H](Cc1c[nH]cn1)NC(=O)[C@H](CCC(N)=O)NC(=O)[C@H](CC(=O)O)NC(=O)[C@@H](NC(=O)[C@H](CCC(=O)O)NC(=O)[C@@H](NC(=O)[C@H](CCC(=O)O)NC(=O)[C@H](CCC(=O)O)NC(=O)[C@H](CS)NC(=O)[C@@H](N)CCC(=O)O)[C@@H](C)OP(=O)(O)O)C(C)C)C(=O)O [WNK3 [a.a.537-547] pT541] (H-ECEE[pT]EVDQHV-OH; N-terminus and C-terminus assumed)
Kd [2, 16]: > 50000 nM | KLHL3 interaction (in words) ([2]; fluorescence polarisation, GST-KLHL3 a.a. 298–587, 10 nM Lumio-green labelled peptide, pH 7.5): too severely destabilised to measure a dissociation constant
